The text below walks through data of PMC6884552, “Glycogen branching enzyme controls cellular iron homeostasis via Iron Regulatory Protein 1 and mitoNEET” (Nature Communications, 2019).

The target of this experiment is T1, Flag-tagged Drosophila Iron Regulatory Protein 1A (IRP1A), wild type (Drosophila, UniProt Q9VCV4 1-902).
T1 construct: Drosophila IRP1A, cDNA LD36161; also called wild type IRP1A; 3x Flag-tagged IRP1A; source: S2 cells, transfected, in lysate
T1 sequence (looked up): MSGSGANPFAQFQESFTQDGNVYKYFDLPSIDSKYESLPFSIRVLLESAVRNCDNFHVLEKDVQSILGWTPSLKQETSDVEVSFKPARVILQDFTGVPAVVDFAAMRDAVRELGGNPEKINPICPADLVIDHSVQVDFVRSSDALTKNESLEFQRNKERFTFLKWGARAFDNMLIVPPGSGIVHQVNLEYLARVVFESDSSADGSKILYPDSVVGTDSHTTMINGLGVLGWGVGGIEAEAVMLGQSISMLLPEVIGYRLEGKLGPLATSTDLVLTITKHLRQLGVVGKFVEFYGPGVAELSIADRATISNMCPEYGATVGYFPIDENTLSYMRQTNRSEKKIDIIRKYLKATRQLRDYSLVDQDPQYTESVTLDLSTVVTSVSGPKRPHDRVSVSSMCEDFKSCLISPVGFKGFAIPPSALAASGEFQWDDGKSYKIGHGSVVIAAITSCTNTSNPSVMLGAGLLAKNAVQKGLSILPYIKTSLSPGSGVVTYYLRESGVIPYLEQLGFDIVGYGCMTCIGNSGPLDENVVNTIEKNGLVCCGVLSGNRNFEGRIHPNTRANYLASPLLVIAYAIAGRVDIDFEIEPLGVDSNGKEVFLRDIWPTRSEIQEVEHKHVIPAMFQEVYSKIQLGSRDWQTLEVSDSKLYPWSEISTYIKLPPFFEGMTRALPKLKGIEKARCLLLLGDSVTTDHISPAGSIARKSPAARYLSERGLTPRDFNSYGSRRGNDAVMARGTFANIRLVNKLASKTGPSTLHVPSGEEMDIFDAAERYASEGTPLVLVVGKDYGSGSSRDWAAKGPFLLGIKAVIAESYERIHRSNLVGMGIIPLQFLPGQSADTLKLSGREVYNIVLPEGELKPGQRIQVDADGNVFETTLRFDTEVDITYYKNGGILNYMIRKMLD
Kind of experiment: co-IP; S2 cells, triple co-transfection of 3xFlag-IRP1A, 6xMyc-AGBE and 3xHA-Cisd2 from one plasmid; Flag-IRP1A as bait; co-precipitated Cisd2 quantified against the sample without AGBE; three biological replicates. The conditions noted are these: partners not purified.

B1: HA-tagged Drosophila Cisd2 (natural protein, UniProt Q9VAM6 1-133, looked up)
chain: MEPISHLVKSSLPNYLSSLPVPDSIGGWFKLSFKDWLALIPPTVVVAGLGYTAYLAYCPAARASCAAKNSGRCNNHIRKNEPKVVDMIDVEDIAEKAAFCRCWKTKNWPYCDGSHGEHNKQTGDNVGPIVIKK
notes: Drosophila Cisd2, cDNA RE49709; also called mitoNEET; Cisd2/mitoNEET; source: S2 cells, transfected, in lysate
As for B1, the “fold change of co-immunoprecipitated Cisd2 with AGBE co-transfected against without AGBE” value is around 3 fold.
